One block for each binder: values may come before it.
Experiments:
[1] = target: human PD-L1, cell-surface (human, UniProt Q9NZQ7 19-290); assay: cell-based or functional assay
[2] = target: T1, cPD-L1-His (Acro Biosystems, PD1-C52H4) (cynomolgus, UniProt Q9NZQ7 19-238 (human entry)); assay: SPR, mAb^2 captured on Protein A chip, antigen in flow
T1 construct: bought; also called Cyno PD-L1-His; Cynomolgus PD-L1-His; not shown: His tag of the bought product
Experimental: (§1) Briefly, the anti-human CD137/PD-L1 mAb², diluted in HBS-EP buffer (GE Healthcare, BR100188) at 2 μg/ml, were injected individually on flows cell 2, 3 and 4 of a Protein A chip (GE Healthcare, 29127556) at 30 μl/min to achieve a final response of approximately 110 RU. Two different recombinant human PD-L1 antigens were used i.e. hPD-L1-His-Avi (see Example 1.3 for antigen details) and biotinylated hPD-L1-Avi-His (Acrobiosystems, PD-1-H82E5). Human and cynomolgus PD-L1-His (Acrobiosystems, PD-1-C52H4) antigens, diluted in HBS-EP buffer, were injected on flow cell 1, 2, 3 or 4 as appropriate at a concentration range of 81 nM to 0.037 nM with 3-fold dilutions for 4 min at 75 μl/min and then allowed to dissociate in buffer for 10 min. Regeneration was achieved by injecting 10 mM glycine-HCL pH1.5 (GE Healthcare, Human Antibody Capture Kit, BR00356) for 30 sec at a rate of 30 μl/min. Subtracted data (flow cell 2−flow cell 1, flow cell 3−flow cell 1, or flow cell 4−flow cell 1) were analysed using BIAevaluation 3.2 Software (GE Healthcare) to identify binding using the model 1:1 binding with mass transfer, with refractive index (RI) constant 0.

[3] = target: T2, biotinylated hPD-L1-Avi-His (Acro Biosystems, PD1-H82E5) (human, UniProt Q9NZQ7 19-238, biotinylated); assay: as above
T2 construct: bought; also called Human PD-L1-His; not shown: Avi and His tags of the bought product
T2 sequence (Q9NZQ7 19-238): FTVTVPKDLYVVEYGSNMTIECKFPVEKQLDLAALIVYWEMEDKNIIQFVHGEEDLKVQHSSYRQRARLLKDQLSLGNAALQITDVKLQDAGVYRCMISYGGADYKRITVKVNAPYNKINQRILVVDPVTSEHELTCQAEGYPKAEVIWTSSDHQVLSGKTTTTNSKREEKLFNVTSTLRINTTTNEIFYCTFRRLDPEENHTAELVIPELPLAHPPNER
Experimental: as §1

hCD137-mFc-Avi = target: T3, hCD137-mFc-Avi (human; mouse, UniProt Q07011 24-186, biotin on the Avi sequence where the biotinylated form was used); assay: SPR, mAb^2 captured by anti-human Fab, antigen in flow
T3 construct: also called human CD137-mFc-Avi; dimeric human CD137; not shown: mouse IgG2a Fc domain (mIgG2a Fc)
T3 sequence (Q07011 24-186): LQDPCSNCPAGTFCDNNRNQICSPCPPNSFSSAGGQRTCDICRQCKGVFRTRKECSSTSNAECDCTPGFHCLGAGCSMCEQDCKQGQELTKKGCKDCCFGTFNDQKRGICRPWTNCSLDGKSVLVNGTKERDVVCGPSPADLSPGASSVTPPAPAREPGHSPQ
Experimental: (§2) The binding of the anti-human CD137/PD-L1 mAb² to recombinant dimeric human and cynomolgus CD137 antigens was also measured by SPR using a Biacore T200 processing unit (GE Healthcare).
(§3) Briefly, 20 μg/ml anti-human Fab antibody (GE Healthcare, Human Fab Capture kit 28958325) was coated on flow cells 1, 2, 3 and 4 of a Biacore sensor S chip CM5 (GE Healthcare, BR100530) achieving a final response of approximately 5000 RU. […] The recombinant dimeric antigens, human CD137-mFc-Avi or cynomolgus CD137-mFc-Avi (see Example 1.1 for antigen details) diluted in HBS-EP buffer, were injected on flow cell 1, 2, 3 or 4 as appropriate at a concentration range of 81 nM to 0.037 nM with 3-fold dilutions for 4 minutes at 70 μl/min and then allowed to dissociate in buffer for 10 minutes. Regeneration was achieved by injecting 10 mM glycine pH 2.1 (GE Healthcare, Human Fab Capture kit 28958325) for 60 seconds at a rate of 30 μl/min. Data analysis was performed as described in Example 9.1.

cCD137-mFc-Avi = target: T4, cCD137-mFc-Avi (cynomolgus; mouse); assay: as above
T4 construct: also called cynomolgus CD137-mFc-Avi; Cyno CD137-mFc-Avi; not shown: mouse IgG2a Fc domain (mIgG2a Fc)
T4 chain: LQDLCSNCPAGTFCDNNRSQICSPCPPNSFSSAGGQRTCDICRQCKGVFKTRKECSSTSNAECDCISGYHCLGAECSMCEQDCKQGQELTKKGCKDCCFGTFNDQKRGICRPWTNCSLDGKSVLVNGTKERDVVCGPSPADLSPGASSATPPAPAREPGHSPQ
Experimental: as §2, §3

[4] = target: human CD137, cell-surface (human, UniProt Q07011 24-255); assay: cell-based or functional assay
[5] = target: T5, cynomolgus CD137, cell-surface (cynomolgus, UniProt Q07011 24-255 (human entry)); assay: cell-based or functional assay
T5 chain: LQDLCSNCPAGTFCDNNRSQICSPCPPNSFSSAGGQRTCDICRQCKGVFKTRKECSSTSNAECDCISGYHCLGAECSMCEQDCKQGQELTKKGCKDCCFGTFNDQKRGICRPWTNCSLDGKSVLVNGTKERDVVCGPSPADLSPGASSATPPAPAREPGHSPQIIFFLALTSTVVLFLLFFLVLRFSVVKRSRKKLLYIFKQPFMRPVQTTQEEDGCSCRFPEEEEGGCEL

Sequence of human PD-L1, cell-surface (Q9NZQ7 19-290): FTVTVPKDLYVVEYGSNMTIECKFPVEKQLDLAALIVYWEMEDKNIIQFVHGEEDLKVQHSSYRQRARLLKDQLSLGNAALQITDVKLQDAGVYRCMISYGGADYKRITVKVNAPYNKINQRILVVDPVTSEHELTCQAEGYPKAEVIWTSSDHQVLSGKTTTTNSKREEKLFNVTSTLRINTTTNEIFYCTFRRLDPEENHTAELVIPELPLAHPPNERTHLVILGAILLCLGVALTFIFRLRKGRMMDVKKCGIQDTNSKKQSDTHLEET
T1 sequence (Q9NZQ7 other isoform, or with tags, fused parts or gaps): as the sequence (Q9NZQ7 19-238) above, with A33T, A34S, S62N, R68Q, Q82R, F173L, T185A, T192I, H215L counted along it

EC50 (nM), IFN-γ release, human MLR [1]: 0.03 nM
Emax (pg/ml), IFN-γ release, human MLR [1]: 2650 pg/mL
Kd [2]: 0.59 nM
Kd [3]: 0.5 nM
Kd (hCD137-mFc-Avi): 1.5 nM
Kd (cCD137-mFc-Avi): 1 nM
EC50 (nM), hIL-2 release, CD8+ T cells, donor 171115A, HEK.hPD-L1 XL [4]: 0.27 nM
EC50 (nM), hIL-2 release, CD8+ T cells, donor 171115A, MDA-MB-231 XL [4]: 0.02 nM
EC50 (nM), hIL-2 release, CD8+ T cells, donor 171115B, HEK.hPD-L1 XL [4]: 0.19 nM
EC50 (nM), hIL-2 release, CD8+ T cells, donor 171115B, MDA-MB-231 XL [4]: 0.02 nM
EC50 (nM) (crosslinked), mIL-2 release, DO11.10.cCD137 with HEK.cyPD-L1 [5]: 0.08 nM
Emax (pg/ml) (crosslinked), mIL-2 release, DO11.10.cCD137 with HEK.cyPD-L1 [5]: 10500 pg/mL
B1: FS22-172-003-AA/E05v2 (bispecific antibody, human IgG1, kappa, L234A L235A)
heavy: EVQLVQSGAEVKRPGASVKVSCKASGYTFTSYGISWVRQAPGQGLEWMGWISAYSGGTNYAQKLQGRVTMTTDTSTSTAYMELRSLRSDDTAVYYCARDLFPTIFGVSYYYYWGQGTLVTVSSASTKGPSVFPLAPSSKSTSGGTAALGCLVKDYFPEPVTVSWNSGALTSGVHTFPAVLQSSGLYSLSSVVTVPSSSLGTQTYICNVNHKPSNTKVDKKVEPKSCDKTHTCPPCPAPEAAGGPSVFLFPPKPKDTLMISRTPEVTCVVVDVSHEDPEVKFNWYVDGVEVHNAKTKPREEQYNSTYRVVSVLTVLHQDWLNGKEYKCKVSNKALPAPIEKTISKAKGQPREPQVYTLPPSRDELPYIIPPYNQVSLTCLVKGFYPSDIAVEWESNGQPENNYKTTPPVLDSDGSFFLYSKLTVGADRWLEGNVFSCSVMHEALHNHYTQKSLSLSPG
light: DIQMTQSPSTLSASVGDRVTITCRASQSISGRLAWYQQKPGKAPNLLIYEASNLESGVPSRFSGSGSGTEFTLTISSLQPEDFATYYCQQSYSTPRVTFGQGTKVEIKRTVAAPSVFIFPPSDEQLKSGTASVVCLLNNFYPREAKVQWKVDNALQSGNSQESVTEQDSKDSTYSLSSTLTLSKADYEKHKVYACEVTHQGLSSPVTKSFNRGEC

Kd [2]: 0.53 nM
Kd [3]: 0.49 nM
Kd (hCD137-mFc-Avi): 2.2 nM
Kd (cCD137-mFc-Avi): 1.8 nM
EC50 (nM), hIL-2 release, CD8+ T cells, donor 171115A, HEK.hPD-L1 XL [4]: 0.21 nM
EC50 (nM), hIL-2 release, CD8+ T cells, donor 171115A, MDA-MB-231 XL [4]: 0.02 nM
EC50 (nM), hIL-2 release, CD8+ T cells, donor 171115B, HEK.hPD-L1 XL [4]: 0.22 nM
EC50 (nM), hIL-2 release, CD8+ T cells, donor 171115B, MDA-MB-231 XL [4]: 0.01 nM
EC50 (nM) (crosslinked), mIL-2 release, DO11.10.cCD137 with HEK.cyPD-L1 [5]: 0.06 nM
Emax (pg/ml) (crosslinked), mIL-2 release, DO11.10.cCD137 with HEK.cyPD-L1 [5]: 11200 pg/mL
B2: FS22-172-003-AA/G12v2 (bispecific antibody, human IgG1, kappa, L234A L235A)
heavy: B1 heavy
light: DIQMTQSPSTLSASVGDRVTITCRASQSISGRLAWYQQKPGKAPNLLIYEASNLESGVPSRFSGSGSGTEFTLTISSLQPEDFATYYCQQSYSWPRTFGQGTKVEIKRTVAAPSVFIFPPSDEQLKSGTASVVCLLNNFYPREAKVQWKVDNALQSGNSQESVTEQDSKDSTYSLSSTLTLSKADYEKHKVYACEVTHQGLSSPVTKSFNRGEC

— patent US20250346679A1 (INVOX PHARMA, published 2025)
